Test: soluble on expression in E. coli; label from the status in PepcDB or PDB records

Sequence	soluble on expression in E. coli
MLNNLLQQATSPNGRARQYAIEHTVELTNLIPPTVSYESGGHTLIIGPTMLIERITEPLSSMASITLLSVDGEPGTQSNLYYADTVEISGFLGAFSVNVENHGKRVNLAQAAIGGNSFDIVLDMSLNGLMSEEVPVPGYFPVGRGYPKLADALEEIPTLMGTFDKPKYFRLDPDLCAHSSRGVKGCERCVDACPAGALSSEGSEQTGHRIQINPYLCQGVGTCATACPTEAIHYALPNPTDTQKFIERLLANYHQAGGEKPIVLICSSRHESYNVMALKVLPDNVIPVVVEELPSVGIDSWFAALVNGATQVLFAASRHMPPTIQRILNQEMSMAQSLLTHLGLPKETIDILYLESLREGMPVLCEQPLGLKLGDLIGNKRERLFTALDALAETLNAQPSVQPLSISAPYGTIECQTSDCTLCMSCVAVCPTRALHLAGDSPALRFIEQDCVQCGLCVKACPEQVLSATPQLNWNKAARQGVVTLHQEEPAKCLRCHKPFAPQSMITMLQTKLRGHSHFATPEALNRIAMCEDCRVVDMFEAMAHDPEQQLKY	not soluble
MSSSTSSVESVEDESCSNECSASFTFDTNNNSRGNNQVNELAEETHMKLSITPTRESFSLSQLERIITIGKGTFGRVELARDKITGAHYALKVLNIRRVVDMRQTQHVHNEKRVLLQLKHPFIVKMYASEKDSNHLYMIMEFVPGGEMFSYLRASRSFSNSMARFYASEIVCALEYIHSLGIVYRDLKPENLMLSKEGHIKMADFGFAKELRDRTYTICGTPDYLAPESLARTGHNKGVDWWALGILIYEMMVGKPPFRGKTTSEIYDAIIEHKLKFPRSFNLAAKDLVKKLLEVDRTQRIGCMKNGTQDVKDHKWFEKVNWDDTLHLRVEPPIVPTLYHPGDTGNFDDYEEDTTGGPLCSQRDRDLFAEW	not soluble
MSLKYPGFLYLNDIHIDLSYNPKSNKDWCHSQTNNLLESWEFGQYNCDPPPKLYDSLVESLKTNVPSVDFILLGGDLPSHDLGGNYTFLKEHFRLITDPLEKLYPNKKIFITLGNNDFQENYGSFKTDLKDFENAHEVFGKWMNEEQSKTFKKGGYYYEDMPELKLRLLLLNTVMYTNTKSRVFNESLKDPYDQFAWIRQTYKEGVDKGYKVGVALHVPPGIVYYKGIPGFPSMYLEEFGKVFEECDFSFTISGHSHIDTLNPLYKANVEEDNIQYSLSAVSVSPSHYNNPGYRYFEIKDGVLQDYTQFYADIMMNPDSPKWEVEYKFRDAYKVKDLSKKSLNDATRYIRSKGSVIWSYRGYIYSQAEKYNPFFYCALRALTKEDVFKCSLDLNVNLSSEGHHHHHH	soluble
MASENNGSRSDSESITAPKADSTVVEPRKIALITGITGQDGSYLTEFLLGKGYEVHGLIRRSSNFNTQRINHIYIDPHNVNKALMKLHYADLTDASSLRRWIDVIKPDEVYNLAAQSHVAVSFEIPDYTADVVATGALRLLEAVRSHTIDSGRTVKYYQAGSSEMFGSTPPPQSETTPFHPRSPYAASKCAAHWYTVNYREAYGLFACNGILFNHESPRRGENFVTRKITRALGRIKVGLQTKLFLGNLQASRDWGFAGDYVEAMWLMLQQEKPDDYVVATEEGHTVEEFLDVSFGYLGLNWKDYVEIDQRYFRPAEVDNLQGDASKAKEVLGWKPQVGFEKLVKMMVDEDLELAKREKVLVDAGYMDAKQQPLEHHHHHH	soluble
GMPPVWTLPRLYQHFQGAIDLELWTIPYYLTVLYSIKDPTTVPYRLIQAAVYQEMLHAQLVSNIANAYGYSPTLSAPEYVGTAVPHIDFDLDTPNPTSIFTPYSAELGPLDLTRVNTMCLIEYPEWRTQREPDLADDVTDYGSIGEFYDALRVGMEQLRGHVRGNQKQMDEFGPFYQNSPPLTVTESGDAGFLQALTLVDIIVDQGEGQTQPVETIPTEFQNTADGFQDAWPHFQRFDFIRRMPNWPGVYTGVTDPPAGSPGAEAQARLIADFAGFLDILNGMFSGGGAPPAFGVQMAKLGGDILSCWKLGAVPRYS	soluble
MAHHHHHHMKQSIVTPLRSPLHCATPLPLTFFPSYRRWLPVVRHASRRPHGVFEQRRRGRPHGSTKRVLRHCDAARRVAVVQQKLHVRHVPAIGTKKPTQSHIGSHKAAVAFHRHDSTFLNGVPPNHHTHRRSPRRQFVLRKQTKRFHQEGAVAPLGLVKNGPRPQRTAGITERVYSISLRVTFQKKVSLAAKPVHQLSIDALHALRGVLRRDTSVRKNNPLAHHSHRMLKNVQAVGTLWAKGRRVRLFSSKGTHNIRVYVVEDAQDIHQLMVAHKKNKFPARLHCLPLQGGKKVVNLVGVEPAISDVAKLDNYRRTSNPAILGIRNICQLQYLATAKNIAMNVSKRNQAGLSAADVYRLHVQKRHKICRSAKK	not soluble
MAKVSLEKDKIKFLLVEGVHQKALESLRAAGYTNIEFHKGALDDEQLKESIRDAHFIGLRSRTHLTEDVINAAEKLVAIGAFAIGTNQVDLDAAAKRGIPVFNAPFSNTRSVAELVIGELLLLLRGVPEANAKAHRGVWNKLAAGSFEARGKKLGIIGYGHIGTQLGILAESLGMYVYFYDIENKLPLGNATQVQHLSDLLNMSDVVSLHVPENPSTKNMMGAKEISLMKPGSLLINASRGTVVDIPALADALASKHLAGAAIDVFPTEPATNSDPFTSPLAEFDNVLLTPHIGGSTQEAQENIGLEVAGKLIKYSDNGSTLSAVNFPEVSLPLHVGRRLMHIHENRPGVLTALNKIFAEQGVNIAAQYLQTSAQMGYVVIDIEADEDVAEKALQAMKAIPGTIRARLLY	soluble
MGSDKIHHHHHHMRLSNGDVIVFAGDSITDREKSNNAPLGYGYVNLFYNLMLAKHPETKITVINSGISGNTVIDLIDRWDDDVLSYKPNWISILIGINDLHKFLGGLTTFNPENYYENLRRLLKYTRKVLNNVNFILMTPFYISRNKLEGGFRAKVLELLPQYIEKVRLLSNEFSATYIDLHDTFKKLVNIREPNVYAPEPVHPNFTGHMVIALKLLEALEI	not soluble
MSLHPASANLSPSSVKNCSAKTFGFLILPNFTTIGLASAVETLRMANLAARKPLYRSVLIAADDAPVVASNGMRVLPDYNITNAPALDALLVVGANPIDRSRSNRPLIDWLRQLARQRLPLGGICTGSYLLAKAELLKGYRCTIHWEDLPTLQAHFPGIVISSQLFELDRDRYTCSGGVAAMDMMLQLVARDTGGQDIAAKAAELLLCDRVRGEREGHHHHHH	soluble
MGSDKIHHHHHHMSSNESQTLATISPTALSQLARYIKQWGQELGFAQVGITDTDLSEEEAKLQDWLDKGYHGEMGYMANHGMMRARPHELHQGTKRVVSLRMDYLPPSAGFATNLIDPTLGYISRYAGGRDYHKLMRQRIKKLGDKIEAYCQEQGFGATDSRPFVDSAPVMERPLAEKAGIGWTGKHSLILNHNAGSWFFLGELFINLPLPLDIPISDGCNTCVACIKSCPTGAIVEPYVVDGRRCISYLTIELQGAIPEEFRPLMGNRIYGCDDCQLVCPINAQAPLTQEHDFHIRQQILQPELLTLFNWSEKTFLSLTEGSAIRRIGHKRWLRNIAIALGNAPANPNIIEALSARKASDEVDDMVLEHINWALAQQQAKVQQQTKVQQQAKVQQAVQFEPARETPAQRKTARVVRSVEKGLPRDA	not soluble
MGSDKIHHHHHHMSKGTIRVLQLYPRDMNIYGDWGNALVLQQRLRWHGYTPELLEYNVGDEFPAGVDLIVGGGGQDSGQLVIQDDLLSRESTLKELAEAGTPMLLICGMYQLFGKFFKTRTGSVIPGIGVLDVETHGTDERLIGNVTVSSPEFGDVLGYENHSGQTTLGPGVRPLGSTPKGIGNNSKDGQEGARYRNIVASYLHGSLLPKNPAIADFLIRTAVERKYGSFTPGAPDDRYAVMAREHAARRPR	not soluble
MMICGVFCMYKERKRMTKKELALEYHKKGYNCTQAVACAFCGEFGVSEEEMYKIAEGFGLGMGMMDTCGALTGLFMLIGMKNSGGVEQAGKTKADTYKKTREYAAKFKEINGSVYCKELKGVETGKILAPCDKCILDAVELAEQFLKEN	not soluble
MGETYDLLVIGGGINGVGIARDAAGRGLSVCLCEQDDLAAHTSSASTKLIHGGLRYLEQYEFALVGKALAEREVLLRLAPHIIWPLRFLLPHQPHLRPAWMIRAGLFLYDHLGGSKRSLPRSRRLSLRTHPVGQPLQESLRTGFVYSDAWVQDARLVVLNAMDAAKRGAQIHTRTRCVGAWRDAGFWYAELEGCDGRRRTVQSRALANAAGPWAVSFLDKVAAVPHQHALRLVKGSHIVVPKLFDHDHAYIFQQPDRRIVFAIPYEHDFTLIGTTDVDYEADPSAPKIDAAEVQYLCDAVNLYFQQQITPQDVVWNYSGVRPLLDDAEDNAAEVTRDYQLEVLTDGAPLLNVFGGKLTTYRKLAEEAVDRLTQALGARKPAWTARGEALPGGEQRDIASLLERVRTARPWLPAATAQRLVRNYGTCAEQLLGDAQDMAALGQHFGADLYQAEVDYLCAREWAQTADDILWRRSKLGLRVDAEARARLEAYLQTRPAAHANAQTHVVPALEHHHHHH	not soluble
MGSDKIHHHHHHMHILFLTHYFPPEVNAPASRTYENARRWVRDGHHVTVITCAPNHPKGVIYPGYRNRWCQQEDLDGIRVLRVKTYLSANKGFAKRIANYLSYMLSSTVFSCLVRDIDVVVSTSPQFFCGLAGYFVSRARSAPWVVEIRDLWPESIIAVGAIRNRTVIDLLEGLETFMYRRADHVVAVTDAFKRHIAGRGVGRDRISVIKNGADLERFTSGPRENSFRREHGLEGKFVVSYVGTHGMAHGLNTIFETAEAMRSCEDIVFLLVGDGAEREPLLARKAELGLTNVLMLPQQPKERMPEIINASDACMVLLKKTDLFKTVIPSKIFEAMAMERPIILGVEGESREIVEEGCCGLCIEPENAAELADAIRRLRDDGKLADELGQNGRRFVSAVFNREVLARRYLETLSSMVPLPASTIGVIGKELP	not soluble
MSANQEEDKKPGDGGAHINLKVKGQDGNEVFFRIKRSTQLKKLMNAYCDRQSVDMNSIAFLFDGRRLRAEQTPDELDMEDGDEIDAMLHQTGGSGGGATA	soluble
AHHHHHHGSPKIEPFEKYTERYEEWFERNKFAYLSELNALKSLLPTRECVEVGIGSGRFAAPLGIKMGVEPSKKMAEIARKRGIRVIEGVAENLPFEDNSLDCILMVTTICFVDDPEKAIKEAYRVLKPGGYIVIGFVDKESLIGREYEKRKDKSVFYRDARFFSAREIMELLERNGFKIDGVVQTLFKKLDEIRDVEPVEEGYGRGSFVVIRAKKVV	soluble
RPAPLWAVVADAAVQPAMAAGNDDFETARALDTARELVAGLREGVDSLGGDVAEFKAAIPQHNFEQICDGCFAPIDPGVEPDYVVAHRVSCCMIYHSPTAGKCTSCPHQDKDVRKNALIAASESF	not soluble
MRLPCEVVFARYKANAGVNPKPTKSQKGFVILQKLRQTPPQYQITVAVAGDKTGNKFELNKPPIILDKFIAQGKTTITFQTTPAVMVCISKANPEALAQLIEAIRKIVKGENVDIEKVKVKSSDFKPTTITVNNQATYKKQMQSCSEFLKTLKIEPIDLRRPDKAWRFCHNLTRLTLNGNPIGAHNRDLDVFSKLKQLQSLEMRSCSLELIPVPAMCTMFRELPTSISLLDFGDNHLSIFPPIFHLKQLKIINAAHNAIKYLPSRIGVLQNLNTIDVSNNLMTALPYVFSKIPSIEHVGINANDQMVRLEEEIGPIFIRRLLTKVDNIEYTHEGGVDKLGTIAANAIHREECSKSMKFGRQFLPLSLRFDMDDLMFEKPGISSLELCTGCVRLRHIRYIRPLIIQSRQIANSVDVIGRFVTFDRLLCIDCYRRTTSTNNGEPPFQCDYFQFAV	not soluble
MKNGEQNGPTTCTNCFTQTTPVWRRNPEGQPLCNACGLFLKLHGVVRPLSLKTDVIKKRNRNSANS	soluble
MKPRQRQAAILEYLQKQGKCSVEELAQYFDTTGTTIRKDLVILEHAGTVIRTYGGVVLNKEESDPPIDHKTLINTHKKELIAEAAVSFIHDGDSIILDAGSTVLQIVPLLSRFNNITVMTNSLHIVNALSELDNEQTILMPGGTFRKKSASFHGQLAENAFEHFTFDKLFMGTDGIDLNAGVTTFNEVYTVSKAMCNAAREVILMADSSKFGRKSPNVVCSLESVDKLITDAGIDPAFRQALEEKGIDVIITGESNELEHHHHHH	soluble

— the DeepSol protein solubility set
